Here are results for three molecules from patent US10781452B2, “FLT3 receptor antagonists for the treatment or the prevention of pain disorders” (INSTITUT NATIONAL DE LA SANTE ET DE LA RECHERCHE MEDICALE …, priority 2010, dated 2020).

For assay [1], the target named is T1, TRPV1 (Mus musculus, UniProt Q704Y3).
T1 construct: from tissue; host or cells: living mice, hindpaw
The assay can be described thus: FL-induced mechanical hyperalgesia with intraplantar TRPV1 inhibitor. The class given is in vivo, mice. The note with it: intraplantar 10 μl at 30 μg/ml, one hour before FL injection; 12 h. The procedure:
(§1) Mechanical withdrawal thresholds: The sensitivity to punctuate mechanical stimuli was assessed using the dynamic plantar aesthesiometer (Bioseb, France). Each mouse was placed in a Plexiglass chamber. Sixty minutes later, a mechanical stimulus (a small-diameter blunt metallic filament) was applied to the plantar surface with an increasing force and the paw withdrawal latencies were measured. For each point, mice were tested three times and the responses for each paw were averaged.
To investigate the potential role(s) of FL in modulating noxious sensitivity through the activation of TRPV1 receptor in vivo, we tested the effect of the TRPV1 inhibitor sb-366791 on the FL-induced mechanical hyperalgesia.

In assay [2] the test system is mice hindpaws. The assay can be described thus: Thermo-nociceptive testing (radiant heat paw withdrawal) after hindpaw injection of FL or NGF. Format: in vivo. The note with it: for paw withdrawal latency drop (radiant heat stimulus), thermal hyperalgesia: 12 H after hindpaw injection of 100 ng/10 μl, vs vehicle-injected hindpaws. The procedure: (§2) Animals: Adult Swiss mice (8-10 week old) (CERJ, Le Genest St Isle, France) were used according to the guidelines of the International Association for the Study of Pain. Mice were housed in cages with a 12/12 hr light/dark cycle and fed food and water ad libitum.
(§3) Behavioral experiments: Behavioral responsiveness of the mice was tested following one week of habituation to the testing environment and the observer.
Thermo-nociceptive testing: Nociceptive threshold to acute thermal stimulation was measured using the paw retrieval test (Bioseb, France). Focused light from 12.5 W projection bulb was applied to the middle of the plantar surface of the hind paw (3 mm diameter). The projection bulb was turned off as soon as the mouse removed its paw, and a digital timer connected in series measured the paw withdrawal latency to an accuracy of 0.1 s. We used a cut-off latency of 15 s to avoid the possibility of tissue damage. For each point, mice were tested three times and the responses for each paw were averaged.
FL produces thermal and mechanical hyperalgesia in vivo: To investigate the potential role(s) of FL in modulating noxious heat sensitivity in vivo, we first injected FL (100 ng/10 μl) into mice hindpaws, and latency to ipsilateral paw withdrawal from a radiant heat stimulus was measured. […] At 12 H after injection, FL induced a significant thermal hyperalgesia (latency drop around 30%) compared to control mice hindpaws injected with vehicle (p<0.001) (FIG. 1A). For comparison, NGF (100 ng/10 μ) induced a significant latency drop of 25% at 12 H (FIG. 1A).

The test system of assay [3] is mice hindpaws. The assay can be described thus: Mechanical withdrawal (von Frey hair filaments) after hindpaw injection of FL or NGF. Format: in vivo. As for the experimental part:
as §2, §3, §1
We next tested the role of FL in modulating noxious mechanical sensitivity in vivo. […] For comparison, NGF (100ng/10μ1) induced a foot withdrawal response decrease of 30% at 12 H (P<0.001) (FIG. 1B).

Assay [4] deals with TRPV1 positive sensory neurons. The assay can be described thus: FL potentiation of capsaicin [Ca2+]i response (Fura-2 imaging) in DRG neurons. Format: cell-based, mice. The procedure: DRG neurons primary culture: Primary neuronal cultures were established from lumbar (L4 to L6) dorsal root ganglia (DRG) of adult mice as previously described (Boudes et al, 2009). Ganglia were treated twice with collagenase A (1 mg/ml, Roche Diagnostic, France) for 45 minutes (37° C.) and then with trypsin-EDTA (0.25%, Sigma, St Quentin Fallavier, France) for 30 minutes. They were mechanically dissociated by passing 8 to 10 times through the tip of a fire-polished Pasteur pipette in neurobasal (Life Technologies, Cergy Pontoise, France) culture medium supplemented with 10% foetal bovine serum and DNase (50 U/ml, Sigma, St Quentin Fallavier, France). Isolated cells were collected by centrifugation and suspended in neurobasal culture medium supplemented with 2% B27 (Life Technologies), 2 mM glutamine, penicillin/streptomycin (20 U/ml, 0.2 mg/ml). Dissociated neurons were plated on poly-D,L-ornithine (0.5 mg/ml)-laminin (5 μg/ml)-coated glass coverslips at a density of 2500 neurons per well and were incubated in an incubator with a humidified 95% air/5% CO2 atmosphere. Two hours after plating, the culture medium was carefully removed and replaced to eliminate dead cells and tissue debris. The cells were maintained in culture at 37° C. until experiments were performed. […]
Cells were imaged with a inverted microscope equipped with a NEOFLUAR 25×0.8 objective lens (Axiovert 200, Zeiss, Le Pecq, France) and a CCD camera (Cool SNAP ES, Roper Scientific, France). […] A Fura filter cube with 400 long pass dichroic and D510/40m emission band pass was used to collect fluorescence emissions separately for each wavelength. Images were acquired and analyzed with Metafluor software (Molecular Devices). Changes in intracellular calcium concentrations ([Ca^2+]i ) were monitored as changes of the ratio of the fura-2-fluorescence intensity recorded at 340 nm and 380 nm excitation wavelengths (ΔF340/380). […]
Each neuron was stimulated three times by capsaicin at 4-5 min interval. […] Response areas were calculated as a measure of total Ca^2+ influx. […]

Where [5] appears, read: 12H after hindpaw injection of 100 ng/10 μl.
Where [6] appears, read: all capsaicin responders, potentiated and unaffected.

T1 sequence (Q704Y3 whole entry): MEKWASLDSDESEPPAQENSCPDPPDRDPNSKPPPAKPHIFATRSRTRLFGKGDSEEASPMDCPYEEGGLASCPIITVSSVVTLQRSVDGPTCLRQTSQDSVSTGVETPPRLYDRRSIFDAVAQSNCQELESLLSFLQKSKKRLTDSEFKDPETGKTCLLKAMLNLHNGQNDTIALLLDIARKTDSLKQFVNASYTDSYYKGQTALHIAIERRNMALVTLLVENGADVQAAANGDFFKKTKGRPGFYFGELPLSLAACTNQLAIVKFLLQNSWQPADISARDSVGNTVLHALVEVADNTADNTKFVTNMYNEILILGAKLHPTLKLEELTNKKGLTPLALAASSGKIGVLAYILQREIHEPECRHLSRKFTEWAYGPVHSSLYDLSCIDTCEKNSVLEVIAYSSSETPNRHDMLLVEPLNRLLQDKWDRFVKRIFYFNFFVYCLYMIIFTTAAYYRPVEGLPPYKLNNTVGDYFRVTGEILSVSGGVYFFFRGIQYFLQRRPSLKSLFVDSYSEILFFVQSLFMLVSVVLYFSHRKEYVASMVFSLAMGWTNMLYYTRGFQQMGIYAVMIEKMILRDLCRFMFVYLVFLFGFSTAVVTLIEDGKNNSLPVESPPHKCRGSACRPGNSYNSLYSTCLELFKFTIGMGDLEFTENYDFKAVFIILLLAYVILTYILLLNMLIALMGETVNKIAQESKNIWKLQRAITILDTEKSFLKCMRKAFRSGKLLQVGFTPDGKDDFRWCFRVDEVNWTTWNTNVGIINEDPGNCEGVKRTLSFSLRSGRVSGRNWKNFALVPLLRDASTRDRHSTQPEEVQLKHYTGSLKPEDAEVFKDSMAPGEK

With `COc1cccc(NC(=O)/C=C/c2ccc(Cl)cc2)c1` [sb-366791], the “foot withdrawal response to von Frey hair filaments after FL injection, vs control mice” value in assay [1] is listed as “did not show any change in the foot withdrawal response”.

As for “NGF: nerve growth factor, used as positive control”, the “paw withdrawal latency drop (radiant heat stimulus), thermal hyperalgesia” value in assay [2] turned out to be 25%. In addition, the “foot withdrawal response decrease” value in assay [3] (setting [5]) came out at 30%.

B1: FL: cytokine which is a natural ligand of the FLT3 receptor (protein, UniProt P49771 27-235, looked up)
Fms-related tyrosine kinase 3 …: TQDCSFQHSPISSDFAVKIRELSDYLLQDYPVTVASNLQDEELCGGLWRLVLAQRWMERLKTVAGSKMQGLLERVNTEIHFVTKCAFQPPPSCLRFVQTNISRLLQETSEQLVALKPWITRQNFSRCLELQCQPDSSTLPPPWSPRPLEATAPTAPQPPLLLLLLLPVGLLLLAAAWCLHWQRTRRRTPRPGEQVPPVPSPQDLLLVEH
For the molecule B1, the “paw withdrawal latency drop (radiant heat stimulus), thermal hyperalgesia” value in assay [2] is given as “around 30%”. In addition, in assay [2] (hindpaw injection 100 ng/10 μl), the “onset of heat hyperalgesia” value is “within one/two hours” and the “return of heat hyperalgesia to control values” was determined as 6 days. For the same molecule, the “foot withdrawal response to von Frey hair filaments reduced to, compared to control” value in assay [3] (setting [5]) was determined as 50%. Further, in assay [3] (hindpaw injection 100 ng/10 μl), the “onset of mechanical hyperalgesia” value is “within one/two hours” and the “return of mechanical hyperalgesia to control values” amounted to 6 days. Moreover, the “cells that respond to capsaicin showing potentiation of the capsaicin response” value in assay [4] (FL at 10 and 100 ng/ml, adult DRG neurons) worked out at 56%. For the same molecule, in assay [4] (setting [6]), the “mean fold increase in TRPV1 response, ΔFarea” value is reported as “≈ 512%” and the “mean fold increase in TRPV1 response, ΔFpeak” value is on record as 212%.
